T1: cynomolgus monkey FcγRIIa2 extracellular domain, His-tagged (cynomolgus monkey)
T1 construct: also called cyno FcγRIIa2; FcgRIIa2; not shown: C-terminal His-tag
T1 chain: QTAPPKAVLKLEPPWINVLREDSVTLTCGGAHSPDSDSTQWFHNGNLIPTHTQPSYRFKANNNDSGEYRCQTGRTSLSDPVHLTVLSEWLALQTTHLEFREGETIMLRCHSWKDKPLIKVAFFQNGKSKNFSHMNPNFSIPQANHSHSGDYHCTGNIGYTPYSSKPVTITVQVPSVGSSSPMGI

T2: cynomolgus monkey FcγRIIa3 extracellular domain, His-tagged (cynomolgus monkey)
T2 construct: also called cyno FcγRIIa3; FcgRIIa3; not shown: C-terminal His-tag
T2 chain: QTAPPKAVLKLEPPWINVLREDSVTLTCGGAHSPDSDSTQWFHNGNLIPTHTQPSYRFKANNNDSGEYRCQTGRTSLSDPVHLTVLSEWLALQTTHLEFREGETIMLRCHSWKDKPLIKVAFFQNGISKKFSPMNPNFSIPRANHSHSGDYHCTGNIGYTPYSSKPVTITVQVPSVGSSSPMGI

T3: human FcγRIIaH extracellular domain, His-tagged (human, UniProt P12318 34-217)
T3 construct: also called human FcγRIIa (type H); FcgRIIaH; not shown: C-terminal His-tag
T3 sequence: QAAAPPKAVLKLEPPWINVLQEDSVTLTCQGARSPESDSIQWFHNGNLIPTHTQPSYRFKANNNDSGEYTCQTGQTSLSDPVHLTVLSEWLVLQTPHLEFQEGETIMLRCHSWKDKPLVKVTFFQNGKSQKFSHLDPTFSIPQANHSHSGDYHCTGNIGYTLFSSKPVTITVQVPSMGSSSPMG

T4: human FcγRIIb extracellular domain, His-tagged (human, UniProt P31994 43-217)
T4 construct: also called FcgRIIb (human); not shown: C-terminal His-tag
T4 sequence: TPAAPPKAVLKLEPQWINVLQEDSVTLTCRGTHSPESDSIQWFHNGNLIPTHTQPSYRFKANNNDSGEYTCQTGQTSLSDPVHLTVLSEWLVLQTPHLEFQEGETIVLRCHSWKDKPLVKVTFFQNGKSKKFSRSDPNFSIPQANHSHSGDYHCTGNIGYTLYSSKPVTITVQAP

T5: human FcγRIIaR extracellular domain, His-tagged (human, UniProt P12318 34-217)
T5 construct: also called human FcγRIIa (type R); FcgRIIaR; not shown: C-terminal His-tag
T5 chain: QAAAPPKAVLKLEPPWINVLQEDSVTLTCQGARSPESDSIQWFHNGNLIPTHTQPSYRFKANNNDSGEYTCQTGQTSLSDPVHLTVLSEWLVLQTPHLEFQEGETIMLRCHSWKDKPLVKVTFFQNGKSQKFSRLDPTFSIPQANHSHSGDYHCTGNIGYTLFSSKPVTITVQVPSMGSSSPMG

T6: cynomolgus monkey FcγRIIb extracellular domain, His-tagged (cynomolgus monkey)
T6 construct: also called cyno FcγRIIb; cynoFcγRIIb; not shown: C-terminal His-tag
T6 chain: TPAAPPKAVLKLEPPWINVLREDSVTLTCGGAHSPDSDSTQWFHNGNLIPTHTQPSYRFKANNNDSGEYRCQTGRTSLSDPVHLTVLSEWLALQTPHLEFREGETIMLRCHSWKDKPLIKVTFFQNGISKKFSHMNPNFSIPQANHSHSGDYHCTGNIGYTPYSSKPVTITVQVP

T7: cynomolgus monkey FcγRIIIaS extracellular domain, His-tagged (cynomolgus monkey, UniProt Q8SPW2 21-206 at identity 1.00))
T7 construct: also called cyno FcγRIIIaS; FcgRIIIaS; not shown: C-terminal His-tag
T7 chain: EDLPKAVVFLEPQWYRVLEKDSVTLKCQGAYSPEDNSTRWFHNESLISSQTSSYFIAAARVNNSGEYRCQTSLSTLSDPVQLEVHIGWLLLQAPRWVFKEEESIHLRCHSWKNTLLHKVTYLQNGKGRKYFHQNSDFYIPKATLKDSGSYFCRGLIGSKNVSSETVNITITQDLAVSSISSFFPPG

T8: cynomolgus monkey FcγRIIa1 extracellular domain, His-tagged (cynomolgus monkey)
T8 construct: also called cyno FcγRIIa1; FcgRIIa1; not shown: C-terminal His-tag
T8 chain: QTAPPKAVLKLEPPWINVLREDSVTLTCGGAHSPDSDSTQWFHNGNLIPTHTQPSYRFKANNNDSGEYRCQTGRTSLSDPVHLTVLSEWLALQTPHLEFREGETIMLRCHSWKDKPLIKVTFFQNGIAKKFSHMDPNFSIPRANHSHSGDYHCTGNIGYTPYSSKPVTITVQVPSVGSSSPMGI


What was measured:
Experiment in all cases: SPR (BIACORE), 25 C, antibody captured, FcgR as analyte; KD of SG1 divided by KD of variant;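 also: relative to parent M103205H795-SG1 carrying the SG1 human heavy chain constant region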
[1] = molecular target: T1, cynomolgus monkey FcγRIIa2 …
Procedure: (§1) The kinetic analysis of interactions between these antibodies and FcγR was carried out using BIACORE® T200 or BIACORE® 4000 (GE Healthcare). HBS-EP+ (GE Healthcare) was used as the running buffer, and the measurement temperature was set to 25° C. A chip produced by immobilizing Protein A. Protein A/G or mouse anti-human IgG kappa light chain (BD Biosciences) onto a Series S Sensor Chip CM4 or CM5 (GE Healthcare) by the amine-coupling method was used. […] After the measurement, the antibody captured on the chip was washed off by allowing reaction with 10 mM glycine-HCl, pH1.5 and 25 mM NaOH so that the chip was regenerated and used repeatedly. The sensorgrams obtained as measurement results were analyzed by the 1:1 Langmuir binding model using the BIACORE® Evaluation Software to calculate the binding rate constant ka (L/mol/s) and dissociation rate constant kd (l/s), and the dissociation constant KD (mol/L) was calculated from these values. […] Regarding such interactions, KD values were calculated using the following 1:1 binding model described in BIACORE® T100 Software Handbook BR1006-48 Edition AE.

[2] = molecular target: T2, cynomolgus monkey FcγRIIa3 …
Procedure: as §1

[3] = molecular target: T3, human FcγRIIaH extracellular domain, …
Procedure: as §1

[4] = molecular target: T4, human FcγRIIb extracellular domain, …
Procedure: as §1

[5] = molecular target: T5, human FcγRIIaR extracellular domain, …
Procedure: as §1

[6] = molecular target: T9, human FcγRIIIaV extracellular domain, His-tagged (human, UniProt P08637 17-208)
T9 construct: also called human FcγRIIIa (V158); FcgRIIIaV; not shown: C-terminal His-tag
T9 sequence (P08637 17-208 F176V): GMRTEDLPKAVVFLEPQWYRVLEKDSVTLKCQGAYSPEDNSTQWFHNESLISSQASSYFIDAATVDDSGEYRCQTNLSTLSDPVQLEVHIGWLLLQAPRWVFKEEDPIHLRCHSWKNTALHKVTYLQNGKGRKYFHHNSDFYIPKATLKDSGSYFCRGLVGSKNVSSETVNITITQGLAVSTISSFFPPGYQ
Procedure: as §1

[7] = molecular target: T6, cynomolgus monkey FcγRIIb extracellular …
Procedure: as §1

[8] = molecular target: T7, cynomolgus monkey FcγRIIIaS …
Procedure: as §1

[9] = molecular target: T8, cynomolgus monkey FcγRIIa1 …
Procedure: as §1

Row | Binder | KD fold (SG1 = 1) [1] [fold] | KD fold (SG1 = 1) [2] [fold] | KD fold (SG1 = 1) [3] [fold] | KD fold (SG1 = 1) [4] [fold] | KD fold (SG1 = 1) [5] [fold] | KD fold (SG1 = 1) [6] [fold] | KD fold (SG1 = 1) [7] [fold] | KD fold (SG1 = 1) [8] [fold] | KD fold (SG1 = 1) [9] [fold]
1 | M103205H795-MY450 / M103202L889-SK1 (antibody, human IgG1, kappa, substitution positions are EU numbers) heavy: QVTLKESGPVLVKPTETLTLTCTVSGIDLSHDDISWVRQAPGKGLEWVGIISYAGSTYYASWAKGRLTISKDTSKNQVVLTMTNMDPVDTATYYCARGVPAYSHGGDLWGQGTLVTVSSASTKGPSVFPLAPSSKSTSGGTAALGCLVKDYFPEPVTVSWNSGALTSGVHTFPAVLQSSGLYSLSSVVTVPSSSLGTQTYICNVNHKPSNTKVDKKVEPKSCDKTHTCPPCPAMELLTGPSVFLFPPKPKDTLMISRTPEVTCVVVDVSDEDPEVKFNWYVDGVEVHNAKTKPREEQYNSTYRVVSVLTVLHQDWLNGKEYKCKVSNKALPKPIEKTISKAKGQPREPQVYTLPPSREEMTKNQVSLTCLVKGFYPSDIAVEWESNGQPENNYKTTPPVLDSDGSFFLYSKLTVDKSRWQQGNVFSCSVMHEALHNHYTQKSLSLSP light: DIVMTQSPATLSLSPGERATLSCTSSQSVYHANWLSWFQQKPGQPPKLLIYWASTLAYGVPSRFSGSGSGTDFTLTISSLQPEDAATYYCAGGYGGGRYAFGQGTKVEIKRTVAAPSVFIFPPSDEQLKSGTASVVCLLNNFYPREAKVQWKVDNALQSGNSQESVTEQDSKDSTYSLSSTLTLSKADYEKHKVYACEVTHQGLSSPVTKSFNRGEC | 4.6 | 7.7 | 5.8 | 9.3 | 9.2 | 0.3 | 6.4 | 0.3 | 2.3
2 | M103205H795-MY451 / M103202L889-SK1 (antibody, human IgG1, kappa, substitution positions are EU numbers) heavy: QVTLKESGPVLVKPTETLTLTCTVSGIDLSHDDISWVRQAPGKGLEWVGIISYAGSTYYASWAKGRLTISKDTSKNQVVLTMTNMDPVDTATYYCARGVPAYSHGGDLWGQGTLVTVSSASTKGPSVFPLAPSSKSTSGGTAALGCLVKDYFPEPVTVSWNSGALTSGVHTFPAVLQSSGLYSLSSVVTVPSSSLGTQTYICNVNHKPSNTKVDKKVEPKSCDKTHTCPPCPANELLTGPSVFLFPPKPKDTLMISRTPEVTCVVVDVSDEDPEVKFNWYVDGVEVHNAKTKPREEQYNSTYRVVSVLTVLHQDWLNGKEYKCKVSNKALPKPIEKTISKAKGQPREPQVYTLPPSREEMTKNQVSLTCLVKGFYPSDIAVEWESNGQPENNYKTTPPVLDSDGSFFLYSKLTVDKSRWQQGNVFSCSVMHEALHNHYTQKSLSLSP light: DIVMTQSPATLSLSPGERATLSCTSSQSVYHANWLSWFQQKPGQPPKLLIYWASTLAYGVPSRFSGSGSGTDFTLTISSLQPEDAATYYCAGGYGGGRYAFGQGTKVEIKRTVAAPSVFIFPPSDEQLKSGTASVVCLLNNFYPREAKVQWKVDNALQSGNSQESVTEQDSKDSTYSLSSTLTLSKADYEKHKVYACEVTHQGLSSPVTKSFNRGEC | 1.2 | 1.5 | 1.7 | 1.5 | 1.7 | 0.1 | 1.8 | 0.1 | 0.9
3 | M103205H795-MY452 / M103202L889-SK1 (antibody, human IgG1, kappa, substitution positions are EU numbers) heavy: QVTLKESGPVLVKPTETLTLTCTVSGIDLSHDDISWVRQAPGKGLEWVGIISYAGSTYYASWAKGRLTISKDTSKNQVVLTMTNMDPVDTATYYCARGVPAYSHGGDLWGQGTLVTVSSASTKGPSVFPLAPSSKSTSGGTAALGCLVKDYFPEPVTVSWNSGALTSGVHTFPAVLQSSGLYSLSSVVTVPSSSLGTQTYICNVNHKPSNTKVDKKVEPKSCDKTHTCPPCPAQELLTGPSVFLFPPKPKDTLMISRTPEVTCVVVDVSDEDPEVKFNWYVDGVEVHNAKTKPREEQYNSTYRVVSVLTVLHQDWLNGKEYKCKVSNKALPKPIEKTISKAKGQPREPQVYTLPPSREEMTKNQVSLTCLVKGFYPSDIAVEWESNGQPENNYKTTPPVLDSDGSFFLYSKLTVDKSRWQQGNVFSCSVMHEALHNHYTQKSLSLSP light: DIVMTQSPATLSLSPGERATLSCTSSQSVYHANWLSWFQQKPGQPPKLLIYWASTLAYGVPSRFSGSGSGTDFTLTISSLQPEDAATYYCAGGYGGGRYAFGQGTKVEIKRTVAAPSVFIFPPSDEQLKSGTASVVCLLNNFYPREAKVQWKVDNALQSGNSQESVTEQDSKDSTYSLSSTLTLSKADYEKHKVYACEVTHQGLSSPVTKSFNRGEC | 1.6 | 1.6 | 1.9 | 1.6 | 1.8 | 0.1 | 2 | 0.1 | 0.9
